Among the data in CN117858904A (dated 2024) are Kd values, retold here.

Assay [1] has as its target T1, 人PD-L1抗原 (human PD-L1 antigen) (human, UniProt Q9NZQ7 19-238, limits assumed).
T1 construct: also called 专有PD-L1抗原
Description: BLI (Octet Red384), as in Example 3, human PD-L1 antigen on AR2G sensor, antibody as analyte, mean of three measurements. (In general: In BLI a coated tip is dipped into the sample, and binding shifts an interference pattern.)

Assay [2] addresses T2, 食蟹猴CD47抗原 cynoCD47(ARCO), Cynomolgus/Rhesus CD47 protein, Fc Tag, cat. CD7-C5252 (cynomolgus monkey / rhesus monkey).
T2 construct: Commercial protein
Put plainly: BLI (Octet Red384), as in Example 3, cynoCD47-Fc on AR2G sensor, antibody as analyte, mean of three measurements.

Assay [3] addresses 人CD47抗原 CD47-FcLama (human CD47 antigen) (human, UniProt Q08722 19-139). Put plainly: BLI (Octet Red384), CD47-FcLama covalently on AR2G sensor, antibody as analyte (68.9, 34.4, 17.2 nM), 1:1 global fit, mean of three measurements.

T1 sequence (Q9NZQ7 19-238 limits assumed): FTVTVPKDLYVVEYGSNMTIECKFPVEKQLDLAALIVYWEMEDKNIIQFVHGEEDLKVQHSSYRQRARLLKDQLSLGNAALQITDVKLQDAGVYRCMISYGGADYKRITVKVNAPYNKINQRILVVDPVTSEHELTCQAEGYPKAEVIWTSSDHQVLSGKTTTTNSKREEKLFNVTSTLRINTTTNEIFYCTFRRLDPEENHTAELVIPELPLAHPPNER
人CD47抗原 CD47-FcLama (human CD47 antigen), sequence (Q08722 19-139): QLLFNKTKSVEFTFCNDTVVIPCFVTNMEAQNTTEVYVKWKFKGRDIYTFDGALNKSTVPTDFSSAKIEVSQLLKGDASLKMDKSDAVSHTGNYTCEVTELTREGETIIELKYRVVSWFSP

B1: 双特异性抗体09-001 (bispecific antibody 09-001, binds CD47 and PD-L1, common light chain) (bispecific antibody, human IgG1, lambda, L234A L235A)
heavy 1: not shown
light: QTVVTQEPSLSVSPGGTVTLTCGLSSGTVTAINYPGWYQQTPGQAPRTLIYNTNTRHSGVPDRFSGSISGNKAALTITGAQAEDEADYYCALYMGNGGHMFGGGTKLTVLGQPKAAPSVTLFPPSSEELQANKATLVCLISDFYPGAVTVAWKADSSPVKAGVETTTPSKQSNNKYAASSYLSLTPEQWKSHRSYSCQVTHEGSTVEKTVAPTECS
heavy 2: EVQLVESGGGVVRPGGSLRLSCAASGFTFDDYAMSWVRQAPGKGLEWVSDISWSGSNTNYADSVKGRFTISRDNAKNSLYLQMNSLRAEDTALYHCARAPLLLAMTFGVGSWGQGTLVTVSSASTKGPSVFPLAPSSKSTSGGTAALGCLVKDYFPEPVTVSWNSGALTSGVHTFPAVLQSSGLYSLSSVVTVPSSSLGTQTYICNVNHKPSNTKVDKKVEPKSCDGPGGTCPPCPAPEAAGGPSVFLFPPKPKDTLMISRTPEVTCVVVDVSHEDPEVKFNWYVDGVEVHNAKTKPREEQYNSTYRVVSVLTVLHQDWLNGKEYKCKVSNKALPAPIEKTISKAKGQPREPQVCTLPPSREEMTKNQVSLSCAVKGFYPSDIAVEWESNGQPENNYKTTPPVLDSDGSFFLVSKLTVDKSRWQQGNVFSCSVMHEALHNHYTQKSLSLSPGK
The Kd is the constant that tells how readily two partners part at equilibrium. In the case of B1, the Kd in assay [1] amounted to 2.54 nM; in assay [2] it was 57 nM; in assay [3] it was 82.5 nM.
